Measurements published in article PMC9969015.

Molecular target: S-RBD protein with C-terminal human Fc-tag (receptor-binding domain of SARS-CoV-2 S protein)
Assay: flow cytometry on cells
Settings: 100 μg/ml S-RBD, 1 mM Mn2+, β1-KO 293 T cells, read off a plot

“wild-type αLβ2 integrin expressed in β1-KO 293 T cells (from UniProt P20701;P05107) αL:D137A” gave a response (parent: est. 1.3) of 0.97 relative MFI.

With “wild-type α4β7 integrin expressed in β1-KO 293 T cells (from UniProt P13612;P26010) β7:D119A” the response (parent: est. 2.0) was 1.2 relative MFI.

“wild-type α5β1 integrin expressed in β1-KO 293 T cells (from UniProt P08648;P05556) β1:D130A” gave a response (parent: est. 1.2) of 0.93 relative MFI.

“wild-type α4β1 integrin expressed in β1-KO 293 T cells (from UniProt P13612;P05556) β1:D130A” gave a response (parent: est. 1.5) of 0.95 relative MFI.
